Publication PMC10967027
Where “and” joins values, the source holds several entries; their conditions need not be identical. Equal values may be shown once.

Tests used:
[1] = molecular target: 868-Z11 G104βP/T96βK single chain TCR; test: SPR; steady state; scTCR immobilised on a CM5 Series S chip by amine coupling (about 2000 RU); peptide/MHC injected at 5 μL/min at concentrations between 50 µM and 2 nM; 25 °C; HBS-EP (10 mM HEPES, 150 mM NaCl, 3 mM EDTA, 0.005% surfactant P-20, pH 7.4); 1:1 binding model; each cell one of three titrations of its group
[2] = molecular target: 868-Z11 A94αH/T96βK single chain TCR; test: as above
[3] = molecular target: 868-Z11 T96βK single chain TCR; test: as above
[4] = molecular target: 868-Z11 single chain TCR (WT), displayed on yeast; test: flow cytometry on cells; yeast displaying the 868-Z11 scTCR stained with PE-conjugated SL9/HLA-A2 tetramer, 256 pM to 32.8 nM, 30 min at 4°C, PBS-BSA; MFI fit to a 1:1 binding isotherm; apparent KD; in duplicate
[5] = molecular target: 868-Z11 T96βK single chain TCR, soluble recombinant; test: SPR; steady state; scTCR immobilised on CM5 chip by amine coupling (about 2000 RU); peptide/MHC injected at 50 µM to 2 nM, 5 μL/min; 25°C; HBS-EP pH 7.4; 1:1 model
[6] = molecular target: 868-Z11 A94αH/T96βK single chain TCR, soluble recombinant; test: as above
[7] = molecular target: 868-Z11 G104βP/T96βK single chain TCR, soluble recombinant; test: as above
[8] = molecular target: 868-Z11 G104βP/T96βK single chain TCR, soluble recombinant
[9] = molecular target: 868-Z11 G104βP single chain TCR, soluble recombinant; test: SPR; single cycle kinetics; scTCR immobilised on CM5 chip by amine coupling (100-300 RU); peptide/MHC injected at 0.6-48 nM, 100 μL/min; 25°C; HBS-EP pH 7.4; 1:1 model
[10] = molecular target: 868-Z11 A94αH single chain TCR, soluble recombinant; test: as above

Row | Substance | Kd [1] | Kd [2] | Kd [3] | further results
1 | SL9 Y3F/T8V escape variant presented by HLA-A*02:01 (from UniProt P61769 21-119) (peptide-MHC) | 49.1 µM and 62.5 µM | 324 µM and 314 µM and 475 µM | 46 µM and 44.6 µM and 59 µM | –
2 | SL9 T8V escape variant presented by HLA-A*02:01 (from UniProt P61769 21-119) (peptide-MHC) | 1.4 µM and 3.5 µM and 3.2 µM | 22.2 µM and 24.3 µM and 40.7 µM | 1.6 µM and 1.9 µM and 2.7 µM | –
3 | SL9 Y3F/V6I/T8V escape variant presented by HLA-A*02:01 (from UniProt P61769 21-119) (peptide-MHC) | 20.4 µM and 28.1 µM and 26.3 µM | 154 µM and 177 µM and 203 µM | 17.3 µM and 23.8 µM and 20.2 µM | –
4 | SL9 Y3F escape variant presented by HLA-A*02:01 (from UniProt P61769 21-119) (peptide-MHC) | 34 µM and 39.8 µM and 52.3 µM | 264 µM and 274 µM and 403 µM | 38.6 µM and 39.3 µM and 58.2 µM | –
5 | PE-conjugated SL9/HLA-A2 tetramer (from UniProt P61769 21-119) (peptide-MHC) | – | – | – | Kd [4]: 0.0017 µM
6 | SL9 Y3F/V6I escape variant presented by HLA-A*02:01 (from UniProt P61769 21-119) (peptide-MHC) | 12.5 µM and 18.5 µM and 22.5 µM | 102 µM and 105 µM and 167 µM | 9.6 µM and 10.2 µM and 15.7 µM | –
7 | SL9 V6I/T8V escape variant presented by HLA-A*02:01 (from UniProt P61769 21-119) (peptide-MHC) | 0.8 µM and 1.8 µM and 1.5 µM | 9.9 µM and 13.7 µM and 17.9 µM | 0.8 µM and 1.1 µM and 1 µM | –
8 | SL9/HLA-A2 (HIV SL9 epitope presented by HLA-A*02:01), soluble (from UniProt P61769 21-119) (peptide-MHC) | – | – | – | Kd [5]: 2.5 µM; Kd [6]: 33 µM; Kd [7]: 2.2 µM; peptide EC50 of IL-2 release (ELISA): CD8+ Jurkat 76 cells with the full length 868-Z11 G104βP/T96βK TCR co-cultured with T2 cells pulsed with WT SL9 peptide, 0.1 nM-100 µM [8]: 0.01 µM; Kd [9]: 0.0003 µM; Kd [10]: 0.0052 µM
9 | SL9 V6I escape variant presented by HLA-A*02:01 (from UniProt P61769 21-119) (peptide-MHC) | 0.7 µM and 1.5 µM and 1.6 µM | 9.5 µM and 12.4 µM and 17.9 µM | 0.8 µM and 1.1 µM and 1.2 µM | –
